{"source": "paper PMC5324060", "about": "“Evolutionary, computational, and biochemical studies of the salicylaldehyde dehydrogenases in the naphthalene degradation pathway” (Scientific Reports, 2017)", "molecules": {"B1": {"name": "SALDan E175A (Alteromonas naphthalenivorans; E175A) (protein)", "chain": "MKTQLIINNKFVDSESTNTFERYNQTLGEVVTSAAAASVADANNAAEVAQEAFKSWSKTGPTERRNVLLKAADILESKTAEFIDVMAKEVGSSGLWAGFNVMLAANVFREAASLATQIQGETIPTDKPGTLSMTIREPVGVILSIAPWNGPIVLAARAIAYPIVCGNSVVFKASAVSPKTHSLVVEAVIEAGLPAGVLNLLSNKPEDGESIVNALIEHKAVRRINFTGSTHVGRIIAQKAGYHLKRCLLELGGKSPQVILDDANLKEAAKAATFGSFLYQGQICMTTGRIIVDESVADEFGEIFAKLASKLPVGNPCDNNDCIVGPVVTQSSAERLNGYIDDALSKGAKLITGGKANGTVMKPTILDHVTSDMEIYHEESFGPLICMVRVKNADEALHTANDTPYGLSAAVFGKDVNRALQMAKDINAGHCHVNGTTVQNDAQAPYGGTKDSGWGRFDGRAVIDEFTELKWITIEPIVQDYPF"}, "B2": {"name": "SALDan N149A (Alteromonas naphthalenivorans; N149A) (protein)", "chain": "B1 chain with N149A, A175E"}, "B3": {"name": "SALDan V153A (Alteromonas naphthalenivorans; V153A) (protein)", "chain": "B1 chain with V153A, A175E"}}, "key": {"SALDan": {"target": "SALDan (Alteromonas naphthalenivorans, UniProt F5Z5S7)", "sequence (F5Z5S7 entry or part of it)": "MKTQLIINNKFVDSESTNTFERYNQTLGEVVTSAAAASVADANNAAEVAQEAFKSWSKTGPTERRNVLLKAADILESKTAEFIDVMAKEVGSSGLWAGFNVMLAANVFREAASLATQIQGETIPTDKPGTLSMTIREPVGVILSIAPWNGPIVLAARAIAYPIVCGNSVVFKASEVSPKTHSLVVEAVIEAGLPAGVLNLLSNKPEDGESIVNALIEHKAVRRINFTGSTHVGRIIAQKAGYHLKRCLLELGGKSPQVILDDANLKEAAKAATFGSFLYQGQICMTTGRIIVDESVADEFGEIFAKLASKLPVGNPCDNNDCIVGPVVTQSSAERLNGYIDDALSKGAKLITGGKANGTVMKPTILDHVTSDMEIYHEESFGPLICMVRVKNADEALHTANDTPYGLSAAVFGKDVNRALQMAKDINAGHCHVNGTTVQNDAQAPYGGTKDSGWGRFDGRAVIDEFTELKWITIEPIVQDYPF", "assay": "Kinetics assay of wild-type recombinant SALDan (NADH appearance at 340 nm)", "assay_type": "biochemical", "conditions": "for App Vmax / App kcat / Km: aldehyde varied at NAD^+ 100 μM, enzyme 0.1 μM, for NAD^+: SAL fixed 50 μM; for Km: NAD^+ 0–500 μM, read-out: App Km", "method": "(§1) The activity of the purified proteins was determined using SAL as a substrate. A reaction volume of 500 μL was prepared in a microfuge tube containing purified SALDan (0.1 μM), SAL (100 μM), and NAD^+ (100 μM) dissolved in 50 mM HEPES (pH 7.5) containing 150 mM NaCl. The SALDan activity was monitored as the rate of appearance of NADH at 340 nm spectrophotometrically. The specific activity of the enzyme (units.mg^−1.min^−1) was expressed as the amount of enzyme required to produce 1 μM of NADH under the assay conditions. The influence of pH on the activity was determined using the protocol described above, with the exception of replacing the […] buffer with 50 mM sodium acetate (pH 3.0–5.0), 50 mM 2-(N-morpholino)ethanesulfonic acid (pH 5.0–7.5), 50 mM HEPES (pH 8.0–8.5), 50 mM glycine (pH 9.0–10.0), or 50 mM sodium phosphate (pH 11.0)[52]. All assays were performed at the optimal temperature. To determine the influence of temperature on the enzymatic activity, the reactions were performed at 15, 20, 25, 30, 35, 40, and 45 °C, respectively.\n(§2) For kinetic studies of aldehydes, the initial velocities of the enzymatic reactions were examined by varying the concentrations of various aromatic as well as aliphatic aldehydes in the presence of NAD^+ (100 μM) and the enzyme (0.1 μM) under optimal conditions. For substrates that absorb at 340 nm, thus interfering with the calculation of the initial rate, their molar coefficients (ε) were calculated as described previously[64] and are presented in Table S1. The apparent kinetic parameters were calculated using the equation: […]\n(§3) The apparent kinetic parameters for NAD^+ were determined at a fixed concentration of SAL (50 μM) and a varying concentration of NAD^+ (0–500 μM). The apparent Km and Vmax values were calculated by using the equation: […]\n(§4) All the activity data were determined by three separate experiments with at least three technical replicates."}, "[1]": {"substrate": "O=Cc1ccccc1O", "assay": "Kinetics assay of SALDan mutant E175A", "assay_type": "biochemical, Alteromonas naphthalenivorans", "conditions": "other: E175A mutant; SAL varied at NAD^+ 100 μM; NAD^+ varied at SAL 50 μM", "from_the_text": "(§5) The primers used for the single amino acid mutant were as follows: N149A, forward primer, 5′-ATAGCACCGTGGGCCGGGCCTATTGTATTA-3′; reverse primer, 5′-TAATACAATAGGCCCGGCCCACGGTGCTAT-3′; V153A, forward primer, 5′-AATGGGCCTATTGTATTAGCGGCTCGG-3′; reverse primer, 5′-CCGAGCCGCTAATACAATAGGCCCATT-3′; E175A, forward primer, 5′-[…]-3′, reverse primer, 5′-GTTGGGACAGTCTTCCAGCCC-3′; E175A, forward primer, 5′-ATGCTCCACCAAATTGGGCAC-3′; reverse primer, 5′-TTTAGGACTTACTTCTGAAGCTTTAAA-3′. The PCR was performed using Pfu polymerase, and the cycling parameters were: 95 °C for 5 min (one cycle), 95 °C for 30 s, and 68 °C for 12 min (12 cycles). After amplification, the PCR mixture was digested with DpnI and then transformed into E. coli BL21(DE3) by electroporation. The mutants were confirmed by DNA sequencing.\nas §1, §2, §3, §4"}, "[2]": {"substrate": "NC(=O)c1ccc[n+]([C@@H]2O[C@H](COP(=O)([O-])OP(=O)(O)OC[C@H]3O[C@@H](n4cnc5c(N)ncnc54)[C@H](O)[C@@H]3O)[C@@H](O)[C@H]2O)c1", "assay": "Kinetics assay of SALDan mutant E175A", "assay_type": "biochemical, Alteromonas naphthalenivorans", "conditions": "other: E175A mutant; SAL varied at NAD^+ 100 μM; NAD^+ varied at SAL 50 μM", "from_the_text": "as §5, §1, §2, §3, §4"}, "[3]": {"substrate": "O=Cc1ccccc1O", "assay": "Kinetics assay of SALDan mutant N149A", "assay_type": "biochemical, Alteromonas naphthalenivorans", "conditions": "other: N149A mutant; SAL varied at NAD^+ 100 μM; NAD^+ varied at SAL 50 μM", "from_the_text": "as §5, §1, §2, §3, §4"}, "[4]": {"substrate": "NC(=O)c1ccc[n+]([C@@H]2O[C@H](COP(=O)([O-])OP(=O)(O)OC[C@H]3O[C@@H](n4cnc5c(N)ncnc54)[C@H](O)[C@@H]3O)[C@@H](O)[C@H]2O)c1", "assay": "Kinetics assay of SALDan mutant N149A", "assay_type": "biochemical, Alteromonas naphthalenivorans", "conditions": "other: N149A mutant; SAL varied at NAD^+ 100 μM; NAD^+ varied at SAL 50 μM", "from_the_text": "as §5, §1, §2, §3, §4"}, "[5]": {"substrate": "O=Cc1ccccc1O", "assay": "Kinetics assay of SALDan mutant V153A", "assay_type": "biochemical, Alteromonas naphthalenivorans", "conditions": "other: V153A mutant; SAL varied at NAD^+ 100 μM; NAD^+ varied at SAL 50 μM", "from_the_text": "as §5, §1, §2, §3, §4"}, "[6]": {"substrate": "NC(=O)c1ccc[n+]([C@@H]2O[C@H](COP(=O)([O-])OP(=O)(O)OC[C@H]3O[C@@H](n4cnc5c(N)ncnc54)[C@H](O)[C@@H]3O)[C@@H](O)[C@H]2O)c1", "assay": "Kinetics assay of SALDan mutant V153A", "assay_type": "biochemical, Alteromonas naphthalenivorans", "conditions": "other: V153A mutant; SAL varied at NAD^+ 100 μM; NAD^+ varied at SAL 50 μM", "from_the_text": "as §5, §1, §2, §3, §4"}, "[7]": {"conditions": "wild-type, “—” means not observed, read-out: App Ki (substrate inhibition)"}}, "note": "Changes are numbered by the printed parent chain. Numbers in names are those of the source. Read-outs that look alike come from different tables or passages of the source.", "data": [{"molecule": "O=Cc1ccc2ccccc2c1", "note": "[2-Naphthaldehyde]", "values": [{"measurement": "Ki", "setting": "SALDan; [7]", "value": "249 ± 22.5", "unit": "µM"}]}, {"molecule": "O=Cc1cccc(Cl)c1", "note": "[3-Chlorobenzaldehyde]", "values": [{"measurement": "Ki", "setting": "SALDan; [7]", "value": "124 ± 20.1", "unit": "µM"}]}, {"molecule": "O=Cc1ccc([N+](=O)[O-])cc1", "note": "[4-Nitrobenzaldehyde]", "values": [{"measurement": "Ki", "setting": "SALDan; [7]", "value": "266 ± 35.8", "unit": "µM"}]}, {"molecule": "O=Cc1ccc(Cl)cc1", "note": "[4-Chlorobenzaldehyde]", "values": [{"measurement": "Ki", "setting": "SALDan; [7]", "value": "132 ± 18.9", "unit": "µM"}]}, {"molecule": "CCCC=O", "note": "[Butyraldehyde]", "values": [{"measurement": "App Vmax", "setting": "SALDan; wild-type", "value": "5.9 ± 1.0", "unit": "U/mg"}, {"measurement": "App kcat", "setting": "SALDan; wild-type", "value": "14.3 ± 2.8", "unit": "s⁻¹"}, {"measurement": "Km", "setting": "SALDan; wild-type", "value": "3200 ± 235", "unit": "µM"}]}, {"molecule": "O=Cc1ccccc1Cl", "note": "[2-Chlorobenzaldehyde]", "values": [{"measurement": "Ki", "setting": "SALDan", "value": "356 ± 40.1", "unit": "µM"}]}, {"molecule": "C=O", "note": "[Formaldehyde]", "values": [{"measurement": "App Vmax", "setting": "SALDan; wild-type", "value": "3.3 ± 0.7", "unit": "U/mg"}, {"measurement": "App kcat", "setting": "SALDan; wild-type", "value": "8.6 ± 2.2", "unit": "s⁻¹"}, {"measurement": "Km", "setting": "SALDan; wild-type", "value": "12400 ± 1820", "unit": "µM"}]}, {"molecule": "O=Cc1ccccc1", "note": "[Benzaldehyde]", "values": [{"measurement": "Ki", "setting": "SALDan", "value": "563 ± 87.6", "unit": "µM"}]}, {"molecule": "B1", "values": [{"measurement": "Km", "setting": "[1]", "value": "15.1 ± 2.6", "unit": "µM"}, {"measurement": "Vmax", "setting": "[1]", "value": 32.3, "unit": "µmol/min/mg"}, {"measurement": "kcat", "setting": "[1]", "value": "82.2 ± 10.1", "unit": "s⁻¹"}, {"measurement": "kcat/Km", "setting": "[1]", "value": "5.4e+06 ± 900000", "unit": "M⁻¹ s⁻¹"}, {"measurement": "Km", "setting": "[2]", "value": "105.6 ± 10.3", "unit": "µM"}, {"measurement": "Vmax", "setting": "[2]", "value": 60.6, "unit": "µmol/min/mg"}, {"measurement": "kcat", "setting": "[2]", "value": "158 ± 17.2", "unit": "s⁻¹"}, {"measurement": "kcat/Km", "setting": "[2]", "value": "1.5e+06 ± 400000", "unit": "M⁻¹ s⁻¹"}]}, {"molecule": "B2", "values": [{"measurement": "Km", "setting": "[3]", "value": "9.5 ± 1.3", "unit": "µM"}, {"measurement": "Vmax", "setting": "[3]", "value": 38.6, "unit": "µmol/min/mg"}, {"measurement": "kcat", "setting": "[3]", "value": "100 ± 16.8", "unit": "s⁻¹"}, {"measurement": "kcat/Km", "setting": "[3]", "value": "1.06e+07 ± 1.3e+06", "unit": "M⁻¹ s⁻¹"}, {"measurement": "Km", "setting": "[4]", "value": "52.3 ± 6.1", "unit": "µM"}, {"measurement": "Vmax", "setting": "[4]", "value": 83.5, "unit": "µmol/min/mg"}, {"measurement": "kcat", "setting": "[4]", "value": "209 ± 25.6", "unit": "s⁻¹"}, {"measurement": "kcat/Km", "setting": "[4]", "value": "4e+06 ± 800000", "unit": "M⁻¹ s⁻¹"}]}, {"molecule": "B3", "values": [{"measurement": "Km", "setting": "[5]", "value": "4.6 ± 0.7", "unit": "µM"}, {"measurement": "Vmax", "setting": "[5]", "value": 59.5, "unit": "µmol/min/mg"}, {"measurement": "kcat", "setting": "[5]", "value": "154 ± 20.4", "unit": "s⁻¹"}, {"measurement": "kcat/Km", "setting": "[5]", "value": "3.34e+07 ± 4.7e+06", "unit": "M⁻¹ s⁻¹"}, {"measurement": "Km", "setting": "[6]", "value": "44.9 ± 4.2", "unit": "µM"}, {"measurement": "Vmax", "setting": "[6]", "value": 103, "unit": "µmol/min/mg"}, {"measurement": "kcat", "setting": "[6]", "value": "254 ± 21.5", "unit": "s⁻¹"}, {"measurement": "kcat/Km", "setting": "[6]", "value": "5.7e+06 ± 500000", "unit": "M⁻¹ s⁻¹"}]}]}
